Measured values as given in PMC5739284.

Molecular target: His6-sPfUIS3 (recombinant His-tagged soluble P. falciparum UIS3, wild type) (P. falciparum)
Experiment: SPR

GST-His6-LC3B (recombinant) (from UniProt Q9GZQ8 1-120) (natural protein)
Kd: 244 nM
